Measurements from PMC9481708.

Molecular target: And-1 HMG domain (UniProt O75717)
Assay: FLAG-SepB IP, GST-HMG blot
Conditions: reference: wild-type SepB; sites T826

UniProt O75717, sequence (O75717 330-984 T826A): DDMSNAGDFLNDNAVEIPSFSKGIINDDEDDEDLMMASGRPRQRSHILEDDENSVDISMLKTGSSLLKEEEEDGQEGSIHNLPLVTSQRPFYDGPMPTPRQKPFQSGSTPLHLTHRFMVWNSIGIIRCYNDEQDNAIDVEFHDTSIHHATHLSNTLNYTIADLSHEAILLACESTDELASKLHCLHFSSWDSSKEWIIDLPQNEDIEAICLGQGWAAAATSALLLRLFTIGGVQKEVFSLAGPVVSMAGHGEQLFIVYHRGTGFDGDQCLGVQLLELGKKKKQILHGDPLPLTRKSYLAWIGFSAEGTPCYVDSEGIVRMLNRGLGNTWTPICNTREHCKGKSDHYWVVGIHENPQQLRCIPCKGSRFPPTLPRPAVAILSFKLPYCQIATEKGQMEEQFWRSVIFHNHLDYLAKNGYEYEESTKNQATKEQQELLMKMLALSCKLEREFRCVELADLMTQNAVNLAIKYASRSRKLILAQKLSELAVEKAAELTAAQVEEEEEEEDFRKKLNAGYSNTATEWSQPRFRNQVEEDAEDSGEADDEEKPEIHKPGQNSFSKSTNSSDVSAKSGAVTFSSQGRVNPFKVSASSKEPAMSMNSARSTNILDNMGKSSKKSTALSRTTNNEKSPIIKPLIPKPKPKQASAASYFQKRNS

And-1 SepB domain, 330-984 (from UniProt O75717) SepB T826A
binding against the reference: stronger
